In article PMC4207663:

What was measured:
[1] = target: Rco_(LS20)-His(6) (Bacillus subtilis (plasmid pLS20cat)); assay: AUC; sedimentation equilibrium; 10 to 30 uM Rco_(LS20); same buffer as sedimentation velocity; 7,000 to 10,000 rpm; 280 nm; single species model (HeteroAnalysis)
[2] = target: Rco_(LS20)-His(6) (Bacillus subtilis (plasmid pLS20cat)); assay: AUC; sedimentation velocity; 10 uM purified Rco_(LS20); 20 mM Tris-HCl, 250 mM NaCl, 10 mM MgCl2, 1 mM EDTA, 100 mM glycerol, pH 7.4; 43-48 krpm; 280 nm; c(s) analysis with SEDFIT

## Rco_(LS20)-His(6) (natural protein)
[1]
  stoichiometry N: 4
[2]
  stoichiometry N: 4
